Data set [1] deals with T1, AK155 receptor complex (α-subunit CPNM1 / IL-20Rα and β-subunit IL-10Rβ), endogenous on cell lines (UniProt Q9UHF4 30-553; Q08334 20-325, limits assumed).
T1 sequence (looked up) 1: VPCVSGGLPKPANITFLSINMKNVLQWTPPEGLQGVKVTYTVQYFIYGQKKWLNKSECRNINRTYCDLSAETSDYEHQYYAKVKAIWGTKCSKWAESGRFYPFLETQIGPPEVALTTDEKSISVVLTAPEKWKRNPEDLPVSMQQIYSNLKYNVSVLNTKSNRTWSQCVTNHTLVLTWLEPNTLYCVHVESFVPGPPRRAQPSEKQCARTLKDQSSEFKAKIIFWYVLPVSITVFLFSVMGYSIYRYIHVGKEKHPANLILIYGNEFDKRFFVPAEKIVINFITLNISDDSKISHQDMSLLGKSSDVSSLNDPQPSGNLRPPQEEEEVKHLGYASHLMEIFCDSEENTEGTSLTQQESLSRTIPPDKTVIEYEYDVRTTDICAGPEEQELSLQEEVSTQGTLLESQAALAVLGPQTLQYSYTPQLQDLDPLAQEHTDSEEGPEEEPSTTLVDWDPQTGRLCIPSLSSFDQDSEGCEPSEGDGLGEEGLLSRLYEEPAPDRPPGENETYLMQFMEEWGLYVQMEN
T1 sequence (looked up) 2: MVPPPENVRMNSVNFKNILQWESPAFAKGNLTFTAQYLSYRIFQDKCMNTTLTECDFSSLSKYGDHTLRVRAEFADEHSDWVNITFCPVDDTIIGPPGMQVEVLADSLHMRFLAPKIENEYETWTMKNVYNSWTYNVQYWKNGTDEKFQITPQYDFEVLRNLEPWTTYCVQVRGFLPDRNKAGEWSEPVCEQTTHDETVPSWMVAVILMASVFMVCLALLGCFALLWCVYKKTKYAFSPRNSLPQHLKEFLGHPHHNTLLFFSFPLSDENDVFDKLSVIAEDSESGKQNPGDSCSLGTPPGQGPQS
Put plainly: cell-based or functional assay.

Data set [2] deals with the molecule itself. The data set is described as follows: SDS-PAGE and western blot of COS-7 cell extracts with and without denaturation (about 36 kDa against about 19 kDa). The text has this: Further evidence for the dimeric state of AK155 was provided by analysis of AK155 extracted from mammalian cells. AK155 was cloned and expressed using the eukaryotic expression vector pME18S in COS-7 cells, where the protein was cloned with a FLAG sequence. The cells were extracted and the extracted protein was loaded as is, or heated with reductant, prior to loading on the electrophoresis gel. AK155 was not purified prior to analysis by SDS PAGE. Detection was by rabbit antiserum prepared against AK155 or by anti-FLAG monoclonal antibody.

B1: AK155 (preparation not stated) (ligand)
chain: KHKQSSFTKSCYPRGTLSQAVDALYIKAAWLKATIPEDRIKNIRLLKKKTKKQFMKNCQFQEQLLSFFMEDVFGQLQLQGCKKIRFVEDFHSLRQKLSHCISCASSAREMKSITRMKRIFYRIGNKGIYKAISELDILLSWIKKLLESSQ
In the case of B1, the “fold increase of IL-8 concentration, HaCaT cells, with against without AK155” value in data set [1] turned out to be 5 fold.

B2: AK155 cloned with a FLAG sequence, expressed in COS-7 cells from pME18S (ligand, not shown: small tags and cut ends)
chain: B1 chain
notes: Analysed unpurified in COS-7 cell extracts; also called FLAG-tagged AK155
Turning to B2, the binding result in data set [2] is given as “binds”.

Values taken from patent US20030073199A1 (SCHERING, published 2003).
